Measurements from article PMC4189786.

Biological target: serum albumin (HSA in Results and figures; Methods state purchased bovine serum albumin, Sigma A7030) ((Methods: bovine)) (UniProt P02769)
Assay: tryptophan fluorescence quenching
Details: 6 uM albumin, off-target, 6 uM albumin in phosphate buffer (10 mM) pH 7.4, 37 C, excitation 290 nm, emission 300-400 nm, 90 s after each aptamer addition

Chain of serum albumin (HSA in Results and figures; Methods state purchased bovine serum albumin, Sigma A7030) ((Methods: bovine)) (P02769 25-607): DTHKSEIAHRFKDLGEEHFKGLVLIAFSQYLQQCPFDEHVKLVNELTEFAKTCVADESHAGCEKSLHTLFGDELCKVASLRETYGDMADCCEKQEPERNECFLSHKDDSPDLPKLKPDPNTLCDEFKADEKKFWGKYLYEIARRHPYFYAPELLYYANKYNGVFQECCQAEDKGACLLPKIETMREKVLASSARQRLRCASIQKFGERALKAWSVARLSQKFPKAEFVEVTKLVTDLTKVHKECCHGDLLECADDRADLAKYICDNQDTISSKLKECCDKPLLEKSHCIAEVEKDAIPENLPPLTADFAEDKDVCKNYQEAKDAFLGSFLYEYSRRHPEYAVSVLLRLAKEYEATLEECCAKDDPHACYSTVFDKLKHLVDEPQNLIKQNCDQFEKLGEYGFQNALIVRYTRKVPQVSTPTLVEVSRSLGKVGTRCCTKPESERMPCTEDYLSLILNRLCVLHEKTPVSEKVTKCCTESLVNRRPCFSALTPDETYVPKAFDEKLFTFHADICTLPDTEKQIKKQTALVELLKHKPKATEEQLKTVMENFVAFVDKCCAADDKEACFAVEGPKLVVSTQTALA

Row | Sequence | binding signal (aptamer:HSA 1:10) [% quenching] | binding signal (aptamer:HSA 1:100) [% quenching]
1 | ACTTTTGAATGTGGCAACAAATTCGACAGG [1.5 M Short] | 9 | 1.5
2 | GGGAGACAAGAATAAACGCTCAAATGGACTTTTGAATGTGGCAACAAATTCGACAGGAGGCTCACAACAGGC [1.5 M Long] | 16 | 2.4
